Where a chain is given by its changes, count along the chain named.
B1: C016 (antibody, V domains shown)
VH: EVQLVESGGGVVQPGRSLRLSCAASGFTFSRYGMHWVRQAPGKGLEWVAVISYDGSNKYYADSVKGRFTISRDNSKNTLYLQMNSLRAEDTAVYYCAKVTAPYCSGGSCYGGNFDYWGQGTLVTVSS
VL: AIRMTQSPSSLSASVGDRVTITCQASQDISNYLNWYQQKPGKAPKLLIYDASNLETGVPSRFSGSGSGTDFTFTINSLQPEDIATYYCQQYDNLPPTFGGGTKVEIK
B2: C151 (antibody, V domains shown)
VH: EVQLVESGGGLVKPGGSLRLSCAASGFTFSSYNMNWVRQAPGKGLEWVSCISSSSSYIYYADSVKGRFTISRDNAKNSLYLQMNSLRAEDTAVYYCARERGYDGGKTPPFLGGQGTLVTVSS
VL: NFMLTQPHSVSESPGKTVTISCTGSSGSIASNYVQWYQQRPGSAPTTVIYEDNQRPSGVPDRFSGSIDSSSNSASLTISGLKTEDEADYYCQSYDSSNYWVFGGGTKLTVL
B3: C018 (antibody, V domains shown)
VH: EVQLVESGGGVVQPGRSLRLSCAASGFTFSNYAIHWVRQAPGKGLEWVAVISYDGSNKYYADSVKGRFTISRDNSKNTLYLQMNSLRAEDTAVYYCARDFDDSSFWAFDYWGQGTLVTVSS
VL: DIQLTQSPSSLSASVGDRVTITCRASQSIRSYLNWYQQKPGKAPKLLIYAASSLQSGVPSRFSGSGSGTDFTLTISSLQPDDFATYYCQQSYSTPPATFGQGTKLEIK
B4: C155 (antibody, V domains shown)
VH: EVQLVESGGGLIQPGGSLRLSCAASGFIVSSNYMSWVRQAPGKGLEWVSVIYSGGSTFYADSVKGRFTISRDNSKNTLYLQMNSLRAEDTAVYYCARDFGEFYFDYWGQGTLVTVSS
VL: EIVMTQSPATLSVSPGERATLSCRASQSVSSNLAWYQQKPGQAPRLLIYGASTRATAIPARFSGSGSGTEFTLTISSLQSEDFAVYYCQQYNNWPRTFGQGTKVEIK
B5: C210 (antibody, V domains shown)
VH: B4 VH with I28T, I69F, F99L, G100M, E101A, F102Y, Y103G, F104M, Y106V, L112T
VL: DIQLTQSPSFLSASVGDRVTITCRASQGISSYLAWYQQKPGKAPKLLIYAASTLQSGVPSRFSGSGSGTEFTLTISSLQPEDFATYYCQQLNSYPQGTFGGGTKVEIK
B6: C021 (antibody, V domains shown)
VH: QVQLQESGPGLVKPSQTLSLTCTVSGGSISSGGYYWSWIRQHPGKGLEWIGYIYYSGSTYYNPSLKSRVTISVDTSKNQFSLKLSSVTAADTAVYYCARVWQYYDSSGSFDYWGQGTLVTVSS
VL: not shown
B7: C204 (antibody, V domains shown)
VH: EVQLLESGGGLEQPGGSLRLSCAASGFTFSTYAMSWVRQAPGKGLEWVSAISGSGAGTFYADSVKGRFTISRDNSKNTLYLQMNSLRAEDTAVYYCARESDCGSTSCYQVGWFDPWGQGTLVTVSS
VL: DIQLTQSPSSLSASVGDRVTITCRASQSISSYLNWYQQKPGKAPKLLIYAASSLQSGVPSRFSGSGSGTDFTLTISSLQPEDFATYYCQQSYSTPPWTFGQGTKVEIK
B8: C006 (antibody, V domains shown)
VH: QVQLVESGGGLVKPGGSLRLSCAASGFIFSDYCMSWIRRAPGKGLEWLSYISNSGTTRYYADSVKGRFTISRDNGRNSLYLQMDSLSAEDTAVYYCARRGDGSSSIYYYNYMDVWGKGTTVTVSS
VL: not shown
B9: C013 (antibody, V domains shown)
VH: QVQLVQSGAEVKKPGSSVKVSCKASGGTFSSYAISWVRQAPGQGLEWMGGIIPIFGTANYAQKFQGRVTITADESTSTAYMELSSLRSEDTAVYYCARGNRLLYCSSTSCYLDAVRQGYYYYYYMDVWGKGTTVTVSS
VL: EIVLTQSPATLSLSPGERATLSCRASQSVSSYLAWYQQKPGQAPRLLIYDASNRATGIPARFSGSGSGTDFTLTISSLEPEDFAVYYCQQRSNWPLTFGGGTKVEIK
B10: C110 (antibody, V domains shown)
VH: QVQLQQSGAEVKKPGESLKISCKGSGYSFTSYWIGWVRQMPGKGLEWMGIIYPGDSDTRYSPSFQGQVTISADKSISTAYMQWSSLKASDTAMYYCARSFRDDPRIAVAGPADAFDIWGQGTMVTVSS
VL: DIQMTQSPSTLSASVGDRVTITCRASQSISYWLAWYQQKPGKAPKLLIYQASSLESGVPSRFSGSESGTEFTLTISSLQPDDFATYYCQQYNSYPYTFGQGTKLEIK
B11: C139 (antibody, V domains shown)
VH: EVQLVESGGGVVQPGRSLRLSCAASGFTFSSYAMHWVRQAPGKGLEWVAVISYDGSNKYSADSVKGRFTISRDNSKNTLYLQMNSLRAEDTAVYYCAKGGAYSYYYYMDVWGKGTTVTVSS
VL: not shown
B12: C019 (antibody, V domains shown)
VH: QVQLVQSGAEVKKPGASVKVSCKASGYTFTSYYMHWVRQAPGQGLEWMGIINPSGGSTSYAQKFQGRVTMTRDTSTSTVYMELSSLRSEDTAVYYCARVPREGTPGFDPWGQGTLVTVSS
VL: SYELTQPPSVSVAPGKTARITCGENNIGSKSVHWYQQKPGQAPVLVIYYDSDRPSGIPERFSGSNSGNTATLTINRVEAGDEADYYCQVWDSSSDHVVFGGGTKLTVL
B13: C143 (antibody, V domains shown)
VH: EVQLVESGGGLVQPGGSLRLSCAASGFSVSTKYMTWVRQAPGKGLEWVSVLYSGGSDYYADSVKGRFTISRDNSKNALYLQMNSLRVEDTGVYYCARDSSEVRDHPGHPGRSVGAFDIWGQGTMVTVSS
VL: QSALTQPASVSGSPGQSITISCTGTSNDVGSYTLVSWYQQYPGKAPKLLIFEGTKRSSGISNRFSGSKSGNTASLTISGLQGEDEADYYCCSYAGASTFVFGGGTKLTVL
B14: C114 (antibody, V domains shown)
VH: QVQLVESGGGLIQPGGSLKLSCVVSGFTVSKNYISWVRQAPGKGLEWVSVIFAGGSTFYADSVKGRFAISRDNSNNTLFLQMNSLRVEDTAIYYCARGDGELFFDQWGQGTLVTVSS
VL: QSVLTQPPSVSGAPGQRVTISCTGTSSNIGAGYDVHWYQQLPGRAPKVLISGNNIRPSEVPDRFSGSRSGTSASLAITSLQPEDEAQYYCQSYDSSLYAVFGGGTKLTVL
B15: C031 (antibody, V domains shown)
VH: EVQLVESGGGLVQPGGSLRLSCAASGFTFSSYDMHWVRQATGKGLEWVSAIGTAGDTYYPGSVKGRFTISRENAKNSLYLQMNSLRAGDTAVYYCARVGYDSSGYSGWYFDLWGRGTLVTVSS
VL: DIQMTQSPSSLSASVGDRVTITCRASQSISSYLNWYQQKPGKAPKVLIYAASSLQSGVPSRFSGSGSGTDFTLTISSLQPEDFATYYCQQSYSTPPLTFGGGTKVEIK
B16: C017 (antibody, V domains shown)
VH: EVQLVESGGGLVQPGRSLRLSCAASGFTFDDYAMHWVRQAPGKGLEWVSGISWNSGTIGYADSVKGRFTISRDNAKNSLYLQMNSLRAEDTAFYYCAKAGVRGIAAAGPDLNFDHWGQGTLVTVSS
VL: EIVLTQSPATLSLSPGERATLSCRASQSVSSYLAWYQQKPGQAPRLLIYDASNRATGIPARFSGSGSGTDFTLTISSLEPEDFAVYYCQQRITFGQGTRLEIK
B17: C120 (antibody, V domains shown)
VH: EVQLVESGGGLIQPGGSLRLSCAASGFTVSSNYMTWVRQAPGKGLEWVSLIYPGGSTYYADSVKGRFTISRDNSKNTLYLQMNSLRAEDTAVYYCAREGMGMAAAGTWGQGTLVTVSS
VL: AIRMTQSPSSLSASVGDTVTITCQASQDISKYLNWYQQKPGKAPKLLIYDASNLETGVPSRFSGSGSGTDFTFTISSLQPEDIATYYCQQYDNLPQTFGGGTKVEIK
B18: C202 (antibody, V domains shown)
VH: B4 VH with I12V, I28T, V50L, F58Y, F99T, G100L, E101G, F102R, Y103G, F104G
VL: B17 VL with A1D, R3Q, M4L, T18R, K31N, Q96R, T97S, G100Q, V104L
B19: C004 (antibody, V domains shown)
VH: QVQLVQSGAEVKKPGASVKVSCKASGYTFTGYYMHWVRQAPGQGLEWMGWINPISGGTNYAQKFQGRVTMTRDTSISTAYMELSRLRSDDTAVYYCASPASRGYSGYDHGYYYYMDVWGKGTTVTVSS
VL: B17 VL with T18R, K31N, Q96I, G100Q, K103R, V104L
B20: C205 (antibody, V domains shown)
VH: QVQLVQSGAEVKKPGASVKVSCKASGHTFTSYYMHWVRQAPGQGLEWMGIINPSGGSTSYAQKFQGRVTMTRDTSTSTVYMELSSLRSEDTAVYYCARGPERGIVGATDYFDYWGQGTLVTVSS
VL: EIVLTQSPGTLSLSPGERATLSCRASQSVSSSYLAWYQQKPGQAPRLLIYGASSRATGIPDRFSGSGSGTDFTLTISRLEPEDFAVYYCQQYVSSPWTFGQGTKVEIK
B21: C208 (antibody, V domains shown)
VH: EVQLVQSGAEVKKPGESLKISCKGSGYSFTSYWIGWVRQMPGKGLEWMGIIYPGDSDTRYSPSFQGQVTISADKSISTAYLKWSSLKASDSAMYYCARGPNLQNWFDPWGQGTLVTVSS
VL: EIVLTQSPGTLSLSPGERATLSCRASQSVSGSYLAWYQQRPGQAPRLLIYGASSRATGIPDRFSGSGSGTDFTLTISRLEPEDFAVYYCQQYGSSLTFGGGTKVEIK
B22: C148 (antibody, V domains shown)
VH: EVQLVESGGGLVQPGGSQRLSCAASGFTVSSNYMSWIRQAPGKGLEWVSVIYSGGSAYYVDSVKGRFTISRDNSKNTLYLQMNSLRPEDTAVYYCARIANYMDVWGKGTTVTVSS
VL: EIVMTQSPATLSVSPGERATLSCRASQSVSSHLAWYQQKPGQAPRLLIYGASTRATGIPTRFSGSGSGTEFTLTISSLQSEDFAVYYCQQYNNWPPLTFGGGTKVEIK
B23: C140 (antibody, V domains shown)
VH: EVQLVESGGGLVQPGGSLRLSCAASGVTVSSNYMSWVRQAPGKGLEWVSLIYSGGSTFYADSVKGRFTISRDNSENTLYLQMNTLRAEDTAVYYCARDLYYYGMDVWGQGTTVTVSS
VL: DIQLTQSPSFLSASVGDRVTITCRASQGISSYLAWYQQKPGKAPKLLIYAASTLQSGVPSRFSGSGSGTEFTLTISSLQPEDFATYYCQQLNSYSYTFGQGTKLEIK
B24: C122 (antibody, V domains shown)
VH: EVQLVESGGGLIQPGGSLRLSCAASGLTVSSNYMSWVRQAPGKGLEWVSVLYSGGSSFYADSVKGRFTISRDNSKNTLYLQMNSLRAEDTAVYYCARESGDTTMAFDYWGQGTLVTVSS
VL: B23 VL with Y94D

Legend:
SARS-CoV RBD = SARS-CoV RBD (SARS-CoV, UniProt P59594); assay: ELISA
SARS-CoV-2 RBD = SARS-CoV-2 RBD (SARS-CoV-2, UniProt P0DTC2); assay: ELISA

Binder	EC50 (SARS-CoV RBD)	EC50 (SARS-CoV-2 RBD)
B1	> 1000 ng/mL	7.41 ng/mL
B2	> 1000 ng/mL	4.3 ng/mL
B3	> 1000 ng/mL	1.53 ng/mL
B4	> 1000 ng/mL	3.3 ng/mL
B5	> 1000 ng/mL	2.83 ng/mL
B6	> 1000 ng/mL	1.25 ng/mL
B7	9.41 ng/mL	3.73 ng/mL
B8	> 1000 ng/mL	1.81 ng/mL
B9	> 1000 ng/mL	2.59 ng/mL
B10	> 1000 ng/mL	7.29 ng/mL
B11	> 1000 ng/mL	1.89 ng/mL
B12	> 1000 ng/mL	11.8 ng/mL
B13	> 1000 ng/mL	3.66 ng/mL
B14	> 1000 ng/mL	9.51 ng/mL
B15	> 1000 ng/mL	22.7 ng/mL
B16	> 1000 ng/mL	1.63 ng/mL
B17	> 1000 ng/mL	1.41 ng/mL
B18	> 1000 ng/mL	3.4 ng/mL
B19	> 1000 ng/mL	2.39 ng/mL
B20	> 1000 ng/mL	> 1000 ng/mL
B21	> 1000 ng/mL	> 1000 ng/mL
B22	> 1000 ng/mL	64.7 ng/mL
B23	> 1000 ng/mL	2.19 ng/mL
B24	> 1000 ng/mL	2.67 ng/mL

— patent publication US11634477 (dated 2023)
